# Like-named read-outs stand apart in the source and are kept apart here.
# What was measured:
# [1] = system: α subunit of a human calcium sensitive potassium channel (human Slowpoke α); assay: Electrophysiological analysis of β subunits co-expressed with the α subunit in Xenopus oocytes, inside-out patches; type: cell-based; conditions: for inactivation of calcium sensitive potassium currents: co-expressed with the α subunit; for V1/2 (half-maximal activation, Boltzmann fit to normalized conductances) / changes in the kinetics and voltage dependence of the channels formed by α subunits: inside-out patches, internal Ca2+ 30 μM; for V1/2 (half-maximal activation, Boltzmann fit to normalized conductances): α and β cRNAs 1:10 (β in excess), α subunit alone 20 mV; for shift of the voltage dependence compared to channels containing only α subunits: micromolar intracellular Ca2+; for changes in the kinetics and voltage dependence of the channels formed by α subunits: α and β cRNAs 1:10
# Procedure: The voltage clamp protocol consisted of a pre-pulse to −160 mV (200 ms), followed by 20 mV depolarizing steps from −80 to +80 mV (500 ms); holding potential was −80 mV; internal Ca^2+ was 30 μM. […] FIG. 7B: Boltzmann equations were fit to normalized conductances for the records shown in 7A, which were calculated from peak currents and plotted as function of test potential. V1/2 values are: 20 mV (α subunit alone); −55 mV (α+β2 subunit); 45.36 mV (α+β3α subunit); 20 mV (α+β3c subunit). […] Inactivation rates and fractional inactivating current were calculated as described in Example 2.
# The β2, β3a, β3b, β3c, and β3d subunits of the human calcium sensitive potassium channel have been expressed in Xenopus oocytes, both by themselves and in combination with an α subunit of a large-conductance calcium-sensitive potassium channel (maxi-K channel). […] The rates of inactivation produced by β2, β3a and β3c are dependent upon voltage and internal calcium concentration; inactivation time constants reach a maximum at high depolarizations and high micromolar calcium for β2, β3a and β3c, τinact ˜30-40 ms at 80 mV with 30 μM intracellular Ca^2+. […] (McManus et al., 1995, Neuron 14:645-650).
# Electrophysiological analysis: cRNAs were synthesized in vitro from plasmids encoding human Slowpoke α or the β2, β3a, β3b, β3c, or β3d subunits and injected into Xenopus oocytes (1.5 ng/oocyte of α subunit RNA +/−β subunit RNA at 1, 5, or 10× molar excess). Calcium sensitive potassium currents were recorded in inside-out patches. Recordings were performed under ionic conditions of symmetrical potassium. The standard pipette and bath solutions contained 116 mM potassium gluconate, 4 mM potassium chloride, 10 mM HEPES, pH 7.2. CaCl2 was added to the bath solution to give final concentrations of free ionized calcium of 3-30 μM, taking into account the stability constant for calcium gluconate (15.9 M^−1). Currents were recorded using an EPC-7 amplifier (HEKA). The pClamp6.0 program (Axon Instruments) was used to generate voltage-clamp commands for data acquisition, and for analysis. NPO-voltage relations were determined at 3, 10 and 30 μM bath calcium using two methods: (1) calculation of macroscopic conductance from peak or steady-state currents at test potentials (−80 to 80 mV), or (2) measurement or calculation of tail currents peaks (−80 mV) at test potentials. Boltzmann functions were fit to the data and used to derive the half-maximal activation parameter (V1/2). Maximal inactivation parameters (30 μM Ca^2+ and 80 mV) were calculated from current traces or averaged current traces. Inactivation rates were determined from single exponential fits. Fractional non-inactivating current was calculated as steady-state/peak current; fractional inactivating current was estimated as peak current minus steady-state current divided by peak current.
# [2] = system: α subunit of a human calcium sensitive potassium channel (human Slowpoke α); conditions: previously described (McManus et al., 1995); cited from earlier work
Molecule,inactivation of calcium sensitive potassium currents [1],"V1/2 (half-maximal activation, Boltzmann fit to normalized conductances) [1]",shift of the voltage dependence compared to channels containing only α subunits [1],inactivation of calcium sensitive potassium currents [2],changes in the kinetics and voltage dependence of the channels formed by α subunits [1],"shift in the voltage dependence of activation ([1]; towards negative potentials, with 30 μM Ca2+ in the bath)"
"β3c: β3c subunit of human calcium sensitive potassium channel, amino acid sequence SEQ. ID. NO.:8 (protein) MFPLLYELTAVSPSPFPQRTAFPASGKKRETDYSDGDPLDVHKRLPSSTGEDRAVMLGFAMMGFSVLMFFLLGTTILKPFMLSIQREESTCTAIHTDIMDDWLDCAFTCGVHCHGQGKYPCLQVFVNLSHPGQKALLHYNEEAVQINPKCFYTPKCHQDRSDLLNSALDIKEFFDHKNGTPFSCFYSPASQSEDVILIKKYDQMAIFHCLFWPSLTLLGGALIVGMVRLTQHLSLLCEKYSTVVRDEVGGKVPYIEQHQFKLCIMRRSKGRAEKS",induce inactivation,20 mV,do not shift the voltage dependence,,,
"β1: previously known human calcium sensitive potassium channel β1 subunit, SEQ. ID. NO.:11, GenBank U25138 (protein) MVKKLVMAQKRGETRALCLGVTMVVCAVITYYILVTTVLPLYQKSVWTQESKCHLIETNIRDQEELKGKKVPQYPCLWVNVSAAGRWAVLYHTEDTRDQNQQCSYIPGSVDNYQTARADVEKVRAKFQEQQVFYCFSAPRGNETSVLFQRLYGPQALLFSLFWPTFLLTGGLLIIAMVKSNQYLSILAAQK",,,,do not induce inactivation,,
"β3d: β3d subunit of human calcium sensitive potassium channel, amino acid sequence SEQ. ID. NO.:10 (protein) MDFSPSSELGFHFVAFILLTRHRTAFPASGKKRETDYSDGDPLDVHKRLPSSTGEDRAVMLGFAMMGFSVLMFFLLGTTILKPFMLSIQREESTCTAIHTDIMDDWLDCAFTCGVHCHGQGKYPCLQVFVNLSHPGQKALLHYNEEAVQINPKCFYTPKCHQDRNDLLNSALDIKEFFDHKNGTPFSCFYSPASQSEDVILIKKYDQMAIFHCLFWPSLTLLGGALIVGMVRLTQHLSLLCEKYSTVVRDEVGGKVPYIEQHQFKLCIMRRSKGRAEKS",,,do not shift the voltage dependence,,did not induce noticeable changes,
"β3b: β3b subunit of human calcium sensitive potassium channel, amino acid sequence SEQ. ID. NO.:6 (protein, listed as Homo Sapiens) MTAFPASGKKRETDYSDGDPLDVHKRLPSSTGEDRAVMLGFAMMGFSVLMFFLLGTTILKPFMLSIQREESTCTAIHTDIMDDWLDCAFTCGVHCHGQGKYPCLQVFVNLSHPGQKALLHYNEEAVQINPKCFYTPKCHQDRNDLLNSALDIKEFFDHKNGTPFSCFYSPASQSEDVILIKKYDQMAIFHCLFWPSLTLLGGALIVGMVRLTQHLSLLCEKYSTVVRDEVGGKVPYIEQHQFKLCIMRRSKGRAEKS",,,do not shift the voltage dependence,,did not induce noticeable changes,
"β2: β2 subunit of human calcium sensitive potassium channel, amino acid sequence SEQ. ID. NO.:2 (protein, listed as Homo Sapiens) MFIWTSGRTSSSYRHDEKRNIYQKIRDHDLLDKRKTVTALKAGEDRAILLGLAMMVCSIMMYFLLGITLLRSYMQSVWTEESQCTLLNASITETFNCSFSCGPDCWKLSQYPCLQVYVNLTSSGEKLLLYHTEETIKINQKCSYIPKCGKNFEESMSLVNVVMENFRKYQHFSCYSDPEGNQKSVILTKLYSSNVLFHSLFWPTCMMAGGVAIVAMVKLTQYLSLLCERIQRINR",induce inactivation,−55 mV,,,,~80 mV
"β3a: β3a subunit of human calcium sensitive potassium channel, amino acid sequence SEQ. ID. NO.:4 (protein, listed as Homo Sapiens) MQPFSIPVQITLQGSRRRQGRTAFPASGKKRETDYSDGDPLDVHKRLPSSTGEDRAVMLGFAMMGFSVLMFFLLGTTILKPFMLSIQREESTCTAIHTDIMDDWLDCAFTCGVHCHGQGKYPCLQVFVNLSHPGQKALLHYNEEAVQINPKCFYTPKCHQDRSDLLNSALDIKEFFDHKNGTPFSCFYSPASQSEDVILIKKYDQMAIFHCLFWPSLTLLGGALIVGMVRLTQHLSLLCEKYSTVVRDEVGGKVPYIEQHQFKLCIMRRSKGRAEKS",induce inactivation,45.36 mV,do not shift the voltage dependence,,,
